Assay [1] has as its target glutathionylated pea mitochondrial Prx IIF (Cys59-SG, Cys84-SG) (Pisum sativum (pea)). Description: SEC; Superdex-200 HR 10/30, 50 mM Tris-HCl pH 7.5, 150 mM NaCl; DTT-reduced protein incubated with 5 mM GSSG at 4 C for 24 h, excess removed. A general note: Size exclusion chromatography separates by hydrodynamic size, large species first.
The target is the same in assay [2]. Kind of assay: SEC; Superdex-200 HR 10/30, 50 mM Tris-HCl pH 7.5, 150 mM NaCl; DTT-reduced protein incubated with 5 mM GSNO at room temperature (different incubation times for 2-Cys Prx), excess removed.
Assay [3] has as its target chloroplast 2-Cys Prx from pea (Pisum sativum), recombinant, not glutathionylated (Pisum sativum (pea)). Description: SEC; Superdex-200 HR 10/30, room temperature, 50 mM Tris-HCl pH 7.5, 150 mM NaCl, 0.5 mL/min; untreated (native) protein.
For assay [4] the target is unchanged. Description: SEC; Superdex-200 HR 10/30, room temperature, 50 mM Tris-HCl pH 7.5, 150 mM NaCl; protein (50 uM) reduced with 10 mM DTT for 30 min, excess DTT removed.
Assay [5] deals with mitochondrial Prx IIF from pea (Pisum sativum), recombinant, not glutathionylated (Pisum sativum (pea)). Kind of assay: SEC; Superdex-200 HR 10/30, room temperature, 50 mM Tris-HCl pH 7.5, 150 mM NaCl, 0.5 mL/min; untreated (native) protein.
The target is the same in assay [6]. Kind of assay: SEC; Superdex-200 HR 10/30, room temperature, 50 mM Tris-HCl pH 7.5, 150 mM NaCl; protein (50 uM) reduced with 10 mM DTT for 30 min, excess DTT removed.
Assay [7] concerns the target SNP-treated (S-nitrosylated) pea chloroplast 2-Cys Prx (Pisum sativum (pea)). Description: SEC; Superdex-200 HR 10/30, 50 mM Tris-HCl pH 7.5, 150 mM NaCl; DTT-reduced protein incubated with 750 uM SNP, excess removed.

Regarding “glutathionylated pea mitochondrial Prx IIF (Cys59-SG, Cys84-SG) (enzyme)”, the stoichiometry N in assay [1] and in assay [2] was 2 throughout.

Take “chloroplast 2-Cys Prx from pea (Pisum sativum), recombinant, not glutathionylated (enzyme)”: the stoichiometry N (in general, a count of units in the complex or per binding partner) in assay [3] came out at 2; in assay [4], 10.

As for “mitochondrial Prx IIF from pea (Pisum sativum), recombinant, not glutathionylated (enzyme)”, the results for the stoichiometry N in assay [5] and in assay [6] were 6 and 2, respectively.

“SNP-treated (S-nitrosylated) pea chloroplast 2-Cys Prx (enzyme)” showed a stoichiometry N in assay [7] of 10.
